The record followed here is the supplement of paper PMC12636428.

The subject of the series is Saccharomyces cerevisiae. Kind of series: transcriptional activation domain activity (GFP:mCherry ratio, weighted mean of sorted bins, harmonized to initial dataset scale) (arbitrary fluorescence ratio units); higher = stronger transcriptional activation. The following applies: beta-estradiol 1 µM; induction time 4 h. The gist of the method: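 Protein tiles carrying barcodes and fused to an estradiol-inducible synthetic transcription factor were placed at the URA3 locus of yeast diploids with a GFP reporter. Following 4 hours at 30 °C in SC with 1 uM beta-estradiol, cells were sorted into 8 GFP:mCherry bins, barcodes were sequenced, and tiles with fewer than 50 reads were discarded. Activation activity is given as the read-weighted mean of bin median fluorescence, averaged across barcodes and linearly mapped to the initial dataset scale.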

As for “TEVQNYPHALDLITDNLDDDFQDELRGSLDVQARLLYGLIHARWIVTARGLSK”, the “transcriptional activation domain activity” value came to 40200.
With “TEYIYQGSNGLRWPPLAFPEHFVYPTEYIAHVYSWLILGLSYVYLLLLVFFYY” the figure was 46100.
The result for “TFARHTDQKWLEEVITEALNELAGLGIVRAHLIALRWCSERITITRVYCSRLL” reads 43300; that for “TFFLMRDIFIMEFLAHCDLLTIFVLAQTGEYARDLVKAFFSCNLRLLVVIFLG”, 47700; that for “TFGLQTSDKNHYIVDAIHVAVARVGVYVQYPQLQKWSLGKIFYISVWKMRTKF”, 68800.
With “TFLANILPITFYFYFYLHFLFLFFFFLFSLSAFLFFLFLYFYFLFSPLFLPFI” the figure was 63700; with “TFLGFFDFTCSSPSYVIHHLDITNLFVSPFLFFPSFPSIFIFCWNILILGLFE”, 57300; with “TFLLLPIFVCPHPNLLFGLGFSLILHACLRQIFLSSLVICVFLSLLVIYMLYV”, 50900.
As for “TFLLLSMPALLLLFSALGVCFLLSTSGLFFLSTSGFFFLLTTSGFFFFLFFML”, the “transcriptional activation domain activity” value amounted to 37100.
Regarding “TFLQVCGSSSIGFSSINLSLRTMAIYGQSLYVVIALVILILGHWCLLLHGLML”, the “transcriptional activation domain activity” value worked out at 63800.
The result for “TFQHLSRTTYEDFVNTKQFFARVRVLRRLYSCNKQEIWQSLIFSTLACLLDRP” reads 60900.
With “TFQPEHTCFPFFLFFFFLFFPPLSFFLPLFFPYSFSVAPLLSAPTVTTHTFTF” the figure was 52800; with “TFSNGEGERVSAWDARETEDGGREIFIEGEEVRVVVVQIRDGRVADWKGAVRD”, 30200; with “TFTDIPVVVCHVFKQKLAKLMSNLCTMFPNAGWLVYSITSIEFQKHGVTHRND”, 51100.
For “TFVERVYTCLNYRIYKIKILGGTCALLIFVWYFPGFVLRNVLVGMLGHVVLSI”, the “transcriptional activation domain activity” value turned out to be 65400.
With “TFVRLVMLIAMKVFKFDFLVLSYLATIVYSVCFLTYLCDWHSIFPFAWYHHIY” the figure was 47000; with “TGAFGATANTGSAFGQRPAFGSPAPTGFGAAQPAATGFGGGGAFGAGANNTTS”, 22300; with “TGAGLFFFFHLFLCVWGIEILLVALDFPFFFFWFPYCAWAVSVRLGFGMIPKI”, 66900.
Take “TGAGTGAFGSTNNTTSNGGIFGSQPPATGNAFGGGGAFGQNKPATGFGAAPST”: the “transcriptional activation domain activity” value is 40200.
The result for “TGAKAPEGGKQLIVVVSSDKGLCGGIHSAVTKKTRQEYAAAPAEDKPQLIVVG” reads 63400; that for “TGAPIRLVAEKAEEQEQDQEGEAPAQDQAQDQEQTQDQGQARAQAGTKAQATK”, 8780.
The result for “TGDDDAAKTTPKKRGDADGTPKTAKSTPRKRKTKAEGDGECSPKKRGRKTKVV” reads 36500.
With “TGEKFGIKRKEQQKPEQTAEETVALAKNDTPSFASVFILAYGIHKTLLLPVRL” the figure was 41500; with “TGGAGATRTSKAKADRHVTQAGHRRLRAQAACERCRRRKLKCEPSGASCVACV”, 48800; with “TGGFGSTNTGGGGLFGGGNTSNTGGGFGSTAGGFGSTNTTSAFGGAAKPAFGA”, 19300.
For the sequence “TGGISELQNALDDTRASFAYVRLQYANDKESKREKFILVIWIGKSVKVMRKAK”, the “transcriptional activation domain activity” value stood at 40200.
Take “TGGLAELQDTLDDARASFAYVRVKYSNDKESQREKFILIVWIGKSVKVMRRAK”: the “transcriptional activation domain activity” value was determined as 33600.
The result for “TGGLPELREHLDDGRASYAYARVTYSNDKESQREKFVLVVWIGPACKVMRKAK” reads 25700; that for “TGGSLFGANKPAFGNAASTSGPFGGGASSGFGGNTGAFGSPASTALGATTGEC”, 51300.
With “TGILAVTLWNIFINKYWPKRRALVVIVILLHVLITVNFATNWAFTYSAFIQNG” the figure was 49800; with “TGKRKFRSSFLLYLAARWCPLFCVITILVGVDPINRINCQAYVVFAFLFANIS”, 52000; with “TGLDGTAYVMFWTINVNVLMLLSQWILEERVRSRALQFCFRYYYFMVYFIFYR”, 55300.
With “TGNSVWAFHALLSKGYFHMLCKDIDINPERVLATLMLVLSHIFERQLCKHSDI” the figure was 48500; with “TGPTNVGLIILIIVSFFQFNFFLPVHQSFAPKLLKHHYIIYRMICSQLSYLVL”, 60900; with “TGQGGLEEVKGKLDETKASFAYVRITYANDKESQREKFILIIFIGAEVKVMRK”, 37500.
Regarding “TGRLQFKWAFVPYILARFVLLGQLLALTLVLRNLQTLIHCGKVLRWLTIVSNV”, the “transcriptional activation domain activity” value turned out to be 60000.
With “TGSTIVRGVLHVFSDQKVNLEQISFGQLNKMIGLLGERRDYRTLSWLLTILWN” the figure was 73300; with “TGTEQKKGIGGRRRRSKQASKQGSRPVCGHACACVCLCVPCLSCVCVSVLHLL”, 67800; with “TGVGLGVCARHEFVLANSAVDLQRGERYANMDYCAASLLRHICLLLFIVFLYD”, 57700.
The result for “TGWCCLLMSIFSFNHAVLFVAFIFPNGVSCRKLLWNAMIGYVISLECSNLLLL” reads 60800.
With “TGYKKKKLGHPSEKVVERHASCEPGTRLYSQKLFGRYVLRLLFVVAYMFVKSF” the figure was 34800; with “THHAFPLRLLVAIVVLLDCHSLLQIALGTCTWAISYHVRPFALTTVILCCSIT”, 41300; with “THSKKQHCDVCKHPYSFTKVYASDMPKQLPLLLVLRKLVQQFFSVLLFSIRAI”, 45400.
As for “THYLCFIFSPRKLWPMNTQVSIPLFHLLILPVSPWIKQLYWLVFWNLFFVWWM”, the “transcriptional activation domain activity” value is 56200.
With “TIALMGQDSIYLQVLAGDPNEAQSKNARRVYRLLKRGKHWVLVTLLLSNVIVN” the figure was 27400.
The result for “TIDSSGVVLTPDPLSFDIGNFDSFSTSLYGFWPLTNAFDFTPYNSGSLAWLLL” reads 99800; that for “TIGFVGFVMSLQKGYLKQQFGLFCWVHMSLLIIVLSSHFIVNNILEGLIWFWV”, 58700.
The result for “TIHHLKDSRSSSWTVAIDNNSNNNKVSDNQPDFVDFQELLDNDTLGNDLLETT” reads 61400; that for “TIHLVNTIQVIVLILDRFLYGIIPLFEIHTCAFFPLLISFWHVSYLLYYVIMF”, 37200; that for “TIIGLTSAVLLPVVVFIPYIPCWLFLYLVNLLFPLIFICFTGKVIQLTFLYYS”, 50100.
“TIITNRGTIPNGLGRDIWTLQPDMITSFAYWFYHMEYAYFLNLVLLKASILFF”: the “transcriptional activation domain activity” value worked out at 57800.
The result for “TIMYGVRFVVVLLTMEIMIHFMYMVAIFHAKPDWSAYTPFQLSMLGYFNLNHI” reads 46200; that for “TINLSLPPRDRYVLVATDYAHVLREMPCLYDEAVQHMKLPAGFFHLLGRILLR”, 58100; that for “TIPGLIRTSPRFGIMLLCLLLSIIFLFTDVIFMIVVSRRGGMNPFWRLALVFK”, 52600.
For “TISRLVFAECFAESCVMFLLLMFQALDVLEPSSRLLNWRISLYILMSMILLFV”, the “transcriptional activation domain activity” value worked out at 52800.
The result for “TISYLILAGSDYFEWCYLSIYQYSTLCNSSLLDVWRDIQYLWILIMFIWNILP” reads 52100; that for “TIVLEELRRASYWGRPSLERSWLLLDMTIKSFTGFIRLLDGDLARTICLFYLV”, 76100.
Consider “TIVLSAMQVGLATQFLVDDYAFSMASYVFSVFAILAPLSAIAAILFVLVLLFA”, for which the “transcriptional activation domain activity” value turned out to be 49900.
The result for “TKAATGGTASSSKPQLAVQKKQQPAEGKKQPVTQKLPPAAAQKLQQKAPATAA” reads 29300; that for “TKCSLDKMLPMLLPLKDALVHMDLMEYYFQTGYLYYLAFSCFILLLYPPFMVL”, 53800; that for “TKFYPNKSIETQLMKNKYCDVVHLTRYAAWSNNKKDQDTSSQPLIDEIFGLYS”, 61500.
For “TKGEFHKIAVIFTSTVVAGMVIMYFWILKQIPFMVGLVVWGWVGISQGFFAVN”, the “transcriptional activation domain activity” value was 55800.
The result for “TKIGTGMGEQMLSREYYYIGTQLPLDRFLTFYYAHPGFHVNNIFIMLSVQLFM” reads 51100; that for “TKLCTIGINCIFIIWHIADILIESPSHLPDIFTVFNVIISCSLFLLLFVYFVY”, 27600.
As to “TKPAEASAADKKPEEAKPAEAPAPAAAPAAAEAPKAEEKPAPAPAPTEAPKAE”, the “transcriptional activation domain activity” value was 21400.
The result for “TKPAPKKAGGRPKKVVAEPEPAAEPSESEEPKLAPKRAGGRPKKVVAPVAEPE” reads 19400; that for “TKQGHELLHQLRHLIIFREGMPCSDITLKLDIHVSKLVFVFLSAFEHGLCSKD”, 58200.
With “TKTVKDTTPATNHMDDDIAMFDSLATTQPIDIAASNQQNGEIAQLWDFNVDQF”, the “transcriptional activation domain activity” value came to 77600.
The result for “TLAGMIRENDEEQKSRGITRIKELEIKCLIEGAYGINRPMHLFETAVVIAGGV” reads 54500; that for “TLAPNGSSNLVHLFAAHSIGKVRSSLLSSLNRKFSSNPSSPCSYFLIFQLFTR”, 61100; that for “TLDTVMRDTANMDWVRFLPLSLLFTSFIFSPLSFSLFRMYVHALLFFCFTFTP”, 49600.
With “TLELFKLKLVRPASKVYHMGGCAELWGFLVMQNHFRDGEGGHFNSITIDVKWA”, the “transcriptional activation domain activity” value stood at 59800.
Consider “TLFTGMHKNIIRLLPYRVARILYILLRVVRPVELMPILKFWIPVGNNKANAAV”, for which the “transcriptional activation domain activity” value is 40700.
On to “TLGFVGFVTTLKKVTLRRQFGLFCWIHISLFLIVVSSHFIVNSILEGLIWFWL”, for which the “transcriptional activation domain activity” value is 74700.
